Patent US12281162 (LANOVA MEDICINES DEVELOPMENT, dated 2025)

Legend:
[1] = molecular target: T1, human G-protein-coupled receptor family C group 5 member D (GPRC5D) (human, UniProt Q9NZD1 1-345); test: FACS, CHO-K1/GPRC5D
T1 construct: whole, on cells; also called human GPRC5D protein

[2] = molecular target: T1, human G-protein-coupled receptor family …; test: FACS, NCI-H929 cells
[3] = molecular target: T1, human G-protein-coupled receptor family …; test: FACS, CHO-K1/human GPRC5D
[4] = molecular target: T1, human G-protein-coupled receptor family …; test: FACS, CHO-K1/human GPRC5D, chimeric antibody
Method: CHO—K1 cells stably expressed human GPRC5D, were harvested from flasks. 100 µl of 1×10⁶ cells/ml of cells were incubated with primary chimeric antibodies in 3-fold serial dilutions starting from 300 nM to 0.001 nM for 30 minutes on ice. After being washed with 200 µl of FACS buffer twice, cells were incubated with secondary antibody for 30 minutes on ice. Cells were washed with 200 µl of FACS buffer twice and transferred to BD Falcon 5 ml tube and analyzed by FACS.

T1 sequence (Q9NZD1 whole entry): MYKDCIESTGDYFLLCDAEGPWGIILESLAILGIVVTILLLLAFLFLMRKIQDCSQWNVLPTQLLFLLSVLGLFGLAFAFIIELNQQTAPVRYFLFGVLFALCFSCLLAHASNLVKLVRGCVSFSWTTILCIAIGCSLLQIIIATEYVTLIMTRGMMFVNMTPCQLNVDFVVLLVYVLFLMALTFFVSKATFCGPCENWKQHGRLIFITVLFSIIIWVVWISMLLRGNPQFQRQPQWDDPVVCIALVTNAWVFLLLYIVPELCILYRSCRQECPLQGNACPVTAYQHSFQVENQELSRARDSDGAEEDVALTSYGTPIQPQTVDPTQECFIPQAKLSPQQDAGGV

Row | Bottom [1] | LogEC50 [1] | Span [1] | Top [1] | Bottom [2] | LogEC50 [2] | Span [2] | Top [2] | Bottom [3] | LogEC50 [3] | Span [3] | Top [3] | Bottom [4] | LogEC50 [4] | Span [4] | Top [4] | Binder
1 | 3990 | 0.955 | 115000 | 119000 | 130 | 1.47 | 21700 | 21900 | 172 | 1.41 | 134000 | 134000 |  |  |  |  | 6-H3L3 (antibody, V domains shown, humanized 6G10D9, VH v3 x VL v3) VH: QVQLVQSGAEVAKPGASVKVSCKASGYTFTTYTMHWVKQAPGQGLEWLGYINPSSGYTNYNQKFKDRVTMTADTSTSTVYMELSSLRSEDTAVYYCASLRSRGYFDYWGQGTLVTVSS VL: DIQMTQSPSFLSTSVGDRVTITCKASQNVGTAVVWYQQKPGKSPKLLIYSASNRYTGVPSRFSGSGSGTEFTLTISSMQPEDFATFFCQQYSSYPYTFGQGTKLEIK
2 | 2340 | 0.905 | 124000 | 126000 | 80 | 1.61 | 28900 | 29000 | 109 | 1.42 | 146000 | 146000 |  |  |  |  | 6-H4L3 (antibody, V domains shown, humanized 6G10D9, VH v4 x VL v3) VH: QVQLVQSGAEVAKPGASVKMSCKASGYTFTTYTMHWVKQAPGQGLEWLGYINPSSGYTNYNQKFKDRVTLTADTSTSTVYMELSSLRSEDTAVYYCASLRSRGYFDYWGQGTLLTVSS VL: DIQMTQSPSFLSTSVGDRVTITCKASQNVGTAVVWYQQKPGKSPKLLIYSASNRYTGVPSRFSGSGSGTEFTLTISSMQPEDFATFFCQQYSSYPYTFGQGTKLEIK
3 | 61.5 | 1.65 | 50200 | 50300 |  |  |  |  |  |  |  |  |  |  |  |  | 6-H4L1 (antibody, V domains shown, humanized 6G10D9, VH v4 x VL v1) VH: QVQLVQSGAEVAKPGASVKMSCKASGYTFTTYTMHWVKQAPGQGLEWLGYINPSSGYTNYNQKFKDRVTLTADTSTSTVYMELSSLRSEDTAVYYCASLRSRGYFDYWGQGTLLTVSS VL: DIQLTQSPSFLSASVGDRVTITCKASQNVGTAVVWYQQKPGKAPKLLIYSASNRYTGVPSRFSGSGSGTEFTLTISSLQPEDFATYYCQQYSSYPYTFGQGTKLEIK
4 | 9.56 | 1.98 | 39400 | 39400 |  |  |  |  |  |  |  |  |  |  |  |  | 6-H4L2 (antibody, V domains shown, humanized 6G10D9, VH v4 x VL v2) VH: QVQLVQSGAEVAKPGASVKMSCKASGYTFTTYTMHWVKQAPGQGLEWLGYINPSSGYTNYNQKFKDRVTLTADTSTSTVYMELSSLRSEDTAVYYCASLRSRGYFDYWGQGTLLTVSS VL: DIQLTQSPSFLSTSVGDRVTITCKASQNVGTAVVWYQQKPGKSPKLLIYSASNRYTGVPSRFSGSGSGTEFTLTISSLQPEDFATFYCQQYSSYPYTFGQGTKLEIK
5 | 6860 | 0.299 | 115000 | 122000 | 269 | 0.0515 | 13500 | 13800 | 524 | 0.472 | 104000 | 104000 | 6890 | 0.101 | 451000 | 458000 | 6G10D9-XI (antibody, V domains shown, also called 6G10D9 (chimeric); 6G1009-X1) VH: QVQLQQSGAELARPGASVKMSCKASGYTFTTYTMHWVKQRPGQGLEWLGYINPSSGYTNYNQKFKDKATLTAGKSSSTAYMQLSSLTSEDSAVYYCASLRSRGYFDYWGQGTTLTVSS VL: DIVMTQSQTFMSTSVGDRVRITCKASQNVGTAVVWYQQKTGQSPRLLIYSASNRYTGVPDRFTGSGSGTDFTLTISNMQSEDLADFFCQQYSSYPYTFGGGTKLEIK
